No end group written: not given here.
Columns and labels:
Experiment in all cases: phage ELISA
BSA = target: T1, BSA (UniProt P02769 25-607)
T1 construct: Negative control target; also called bovine serum albumin
Method: (§1) Wells of a 96-well microplate (Nunc, Maxisorp) were either coated with human Fc fragment solution or streptavidin as negative control. The wells were blocked with BSA and contacted with amplified population of each individual clone. Bound phages were detected by the addition of horseradish peroxidase (HRP)-conjugated anti-M13 monoclonal antibodies using the chromogenic substrate (3,3′,5,5′-tetramethylbenzidine (TMB)) solution, and absorbance at 450 nm was measured.
(§2) The binding activity of phage clone displaying the minimized peptide SEQ ID NO: 2, was further evaluated by phage ELISA (as described above) using different subclasses of native human IgGs and different therapeutic monoclonal antibodies. BSA, avidin and SA were used as targets in negative control wells.

avidin = target: T2, avidin (UniProt P02701 25-152)
T2 construct: Negative control target
T2 sequence (P02701 25-152 limits assumed): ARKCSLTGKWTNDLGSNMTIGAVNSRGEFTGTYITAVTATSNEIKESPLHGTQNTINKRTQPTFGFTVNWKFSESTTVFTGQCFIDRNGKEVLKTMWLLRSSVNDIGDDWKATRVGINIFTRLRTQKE
Method: as §1, §2

streptavidin = target: T3, streptavidin (UniProt P22629 37-163, limits assumed)
T3 construct: Negative control target; also called SA
T3 sequence (P22629 37-163 limits assumed): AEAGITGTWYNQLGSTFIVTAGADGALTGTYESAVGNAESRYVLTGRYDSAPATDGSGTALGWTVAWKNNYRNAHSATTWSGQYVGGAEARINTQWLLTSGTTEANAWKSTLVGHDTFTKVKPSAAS
Method: as §1, §2

Measured: binding result

T1 sequence (P02769 25-607 limits assumed): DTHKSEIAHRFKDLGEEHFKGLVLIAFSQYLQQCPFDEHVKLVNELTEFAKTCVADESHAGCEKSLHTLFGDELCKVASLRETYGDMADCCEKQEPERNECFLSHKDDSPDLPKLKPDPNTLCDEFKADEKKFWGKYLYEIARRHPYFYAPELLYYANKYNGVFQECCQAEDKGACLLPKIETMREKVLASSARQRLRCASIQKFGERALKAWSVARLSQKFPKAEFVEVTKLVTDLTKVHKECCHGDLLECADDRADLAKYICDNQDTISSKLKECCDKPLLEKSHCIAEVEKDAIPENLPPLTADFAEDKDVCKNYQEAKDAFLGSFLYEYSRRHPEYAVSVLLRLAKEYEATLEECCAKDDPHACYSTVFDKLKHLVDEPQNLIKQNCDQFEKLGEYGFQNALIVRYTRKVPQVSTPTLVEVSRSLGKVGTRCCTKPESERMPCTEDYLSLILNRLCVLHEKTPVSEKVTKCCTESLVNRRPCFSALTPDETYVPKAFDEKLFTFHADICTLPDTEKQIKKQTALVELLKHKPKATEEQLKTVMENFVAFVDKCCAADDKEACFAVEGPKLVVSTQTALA

B1: phage clone displaying the minimized peptide SEQ ID NO: 2 (peptide, not shown: large carriers)
peptide: GSYWYQVWF
modifications: also: displayed on phage as P3 coat protein fusion, fusion limits and linker not given here
no binding: all assays above
